The values that follow come from patent publication CN112500484A (MEDX TRANSLATIONAL MEDICINE CO LTD, dated 2021).

The target in the experiment is T1, 人TROP2蛋白C端合成多肽 Arg299-Leu323, 裸肽 (not coupled to KLH) (human).
T1 construct: also called 抗原多肽
T1 peptide: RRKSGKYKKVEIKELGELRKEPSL
The experiment is described as follows: indirect ELISA screen of transiently expressed antibodies.

B1: MJ1-1抗体 (rabbit anti-human TROP2 monoclonal antibody) (antibody, V domains shown)
VH: QSVEESGGRLVTPGTPLTLTCTVSGIDLSSDAIFWVRQAPGEGLKYIGFIHPAGVTYYAAWARGRFTISRTSTTVDLKMTRLTTEDTATYFCGRYFGYASIDIWGPGTLVTVSS
VL: AQVLTQTPSSTSAAVGGTVTINCQSSQNVYDKNQLSWFQQKPGQPPKLLIYKASTLASGVPSRFSGSGSGTQFTLTISGVECDDAATYYCAGVYTGNIYTFGGGTEVVVKG
notes: also called MJ1-1单克隆抗体; 抗TROP2抗体
As for B1, the binding result is listed as “binds”.
